Test results reported in patent US20250154231A1.
Read-outs that look alike come from different tables or passages of the source.

What was measured:
Assay in all cases: cell-based or functional assay
[1] = biological target: SARS-CoV-2 spike (S) protein, Omicron BA.2 (SARS-CoV-2) (UniProt P0DTC2)
[2] = biological target: SARS-CoV-2 Omicron BA.4/5 spike (S) protein (SARS-CoV-2) (UniProt P0DTC2)
[3] = biological target: SARS-CoV-2 Omicron BA.3 spike (S) protein (SARS-CoV-2) (UniProt P0DTC2)
[4] = biological target: SARS-CoV-2 spike (S) protein, Omicron BA.1.1 (SARS-CoV-2) (UniProt P0DTC2)
[5] = biological target: SARS-CoV-2 Omicron (BA.1) spike (S) protein, live virus isolate (SARS-CoV-2) (UniProt P0DTC2)
[6] = biological target: SARS-CoV-2 Delta spike (S) protein (SARS-CoV-2) (UniProt P0DTC2)
[7] = biological target: SARS-CoV-2 Alpha (B.1.1.7) spike (S) protein (SARS-CoV-2) (UniProt P0DTC2)
[8] = biological target: SARS-CoV-2 spike (S) protein, Omicron BA.4/5 (SARS-CoV-2) (UniProt P0DTC2)
[9] = biological target: SARS-CoV-2 Omicron BA.1 spike (S) protein of the pseudovirus (SARS-CoV-2) (UniProt P0DTC2)
[10] = biological target: SARS-CoV-2 spike (S) protein, Omicron BA.1 (SARS-CoV-2) (UniProt P0DTC2)
[11] = biological target: SARS-CoV-2 Omicron BA.1.1 spike (S) protein, pseudovirus construct (SARS-CoV-2) (UniProt P0DTC2)
[12] = biological target: SARS-CoV-2 spike (S) protein, Omicron BA.2.75 (SARS-CoV-2) (UniProt P0DTC2)
[13] = biological target: SARS-CoV-2 Omicron BA.1 spike (S) protein of the live isolate (SARS-CoV-2) (UniProt P0DTC2)
[14] = biological target: SARS-CoV-2 Alpha spike (S) protein (SARS-CoV-2) (UniProt P0DTC2)
[15] = biological target: SARS-CoV-2 Omicron BA.2 spike (S) protein (SARS-CoV-2) (UniProt P0DTC2)
[16] = biological target: SARS-CoV-2 Beta (B.1.351) spike (S) protein (SARS-CoV-2) (UniProt P0DTC2)
[17] = biological target: SARS-CoV-2 Victoria spike (S) protein (SARS-CoV-2) (UniProt P0DTC2)
[18] = biological target: SARS-CoV-2 Beta spike (S) protein (SARS-CoV-2) (UniProt P0DTC2)
[19] = biological target: SARS-CoV-2 Omicron BA.1 spike (S) protein, pseudovirus construct (SARS-CoV-2) (UniProt P0DTC2)
[20] = biological target: SARS-CoV-2 Gamma spike (S) protein (SARS-CoV-2) (UniProt P0DTC2)
[21] = biological target: SARS-CoV-2 Omicron BA.2 spike (S) protein, pseudovirus construct (SARS-CoV-2) (UniProt P0DTC2)
[22] = biological target: SARS-CoV-2 spike (S) protein, Omicron BA.3 (SARS-CoV-2) (UniProt P0DTC2)
[23] = biological target: SARS-CoV-2 Omicron BA.3 spike (S) protein, pseudovirus construct (SARS-CoV-2) (UniProt P0DTC2)
[24] = biological target: SARS-CoV-2 Gamma (P.1) spike (S) protein (SARS-CoV-2) (UniProt P0DTC2)
[25] = biological target: SARS-CoV-2 Omicron BA.1.1 spike (S) protein (SARS-CoV-2) (UniProt P0DTC2)
[26] = biological target: SARS-CoV-2 spike (S) protein, Victoria strain (SARS-CoV-2) (UniProt P0DTC2)
[27] = biological target: SARS-CoV-2 spike (S) protein, Omicron BA.2 (SARS-CoV-2) (UniProt P0DTC2); remark: listed apart in the source
[28] = biological target: SARS-CoV-2 spike (S) protein, Omicron BA.4/5 (SARS-CoV-2) (UniProt P0DTC2); remark: listed apart in the source
[29] = biological target: SARS-CoV-2 spike (S) protein, Omicron BA.2.75.2 (SARS-CoV-2) (UniProt P0DTC2)
[30] = biological target: SARS-CoV-2 spike (S) protein, Omicron BA.2.75 (SARS-CoV-2) (UniProt P0DTC2); remark: listed apart in the source
[31] = biological target: SARS-CoV-2 spike (S) protein, Omicron BJ.1 (SARS-CoV-2) (UniProt P0DTC2)
[32] = biological target: SARS-CoV-2 spike (S) protein, Omicron BA.4.6 (SARS-CoV-2) (UniProt P0DTC2)
[33] = biological target: SARS-CoV-2 spike (S) protein, Omicron BA.2.3.20 (SARS-CoV-2) (UniProt P0DTC2)
[34] = biological target: SARS-CoV-2 spike (S) protein, Victoria strain (SARS-CoV-2) (UniProt P0DTC2); remark: listed apart in the source
[35] = biological target: SARS-CoV-2 spike (S) protein, Omicron BA.2 (SARS-CoV-2) (UniProt P0DTC2); remark: listed apart in the source
[36] = biological target: SARS-CoV-2 spike (S) protein, Omicron BA.2.75 (SARS-CoV-2) (UniProt P0DTC2); remark: listed apart in the source

Sequence of Omi-18 (antibody) (VH): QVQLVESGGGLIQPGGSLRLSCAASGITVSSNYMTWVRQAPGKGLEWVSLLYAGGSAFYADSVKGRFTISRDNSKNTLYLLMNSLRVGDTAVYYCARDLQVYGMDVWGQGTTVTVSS
Sequence of Omi-18 (antibody) (VL): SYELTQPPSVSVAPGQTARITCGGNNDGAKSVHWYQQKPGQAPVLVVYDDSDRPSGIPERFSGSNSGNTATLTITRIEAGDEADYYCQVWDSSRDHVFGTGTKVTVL
Sequence of Omi-12 (antibody) (VH): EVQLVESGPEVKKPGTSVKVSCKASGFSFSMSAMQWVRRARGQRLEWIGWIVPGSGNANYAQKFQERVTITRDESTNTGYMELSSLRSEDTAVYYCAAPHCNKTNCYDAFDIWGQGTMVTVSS
Sequence of Omi-12 (antibody) (VL): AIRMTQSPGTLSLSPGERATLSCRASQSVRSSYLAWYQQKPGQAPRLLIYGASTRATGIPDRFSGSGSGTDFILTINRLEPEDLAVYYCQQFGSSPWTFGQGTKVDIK
Sequence of Omi-29 (antibody) (VH): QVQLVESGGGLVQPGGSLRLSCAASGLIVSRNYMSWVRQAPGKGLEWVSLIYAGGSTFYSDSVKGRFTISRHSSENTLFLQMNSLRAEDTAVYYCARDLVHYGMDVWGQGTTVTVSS
Sequence of Omi-29 (antibody) (VL): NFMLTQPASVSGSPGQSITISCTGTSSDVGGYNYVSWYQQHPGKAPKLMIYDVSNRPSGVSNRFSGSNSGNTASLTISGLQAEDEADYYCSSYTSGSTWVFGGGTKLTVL

Omi-12 (antibody)
pseudovirus neutralisation IC50 [1]: 3 ng/mL | IC50, pseudovirus neutralization [2]: 429 ng/mL | IC50, pseudovirus neutralization [3]: 6 ng/mL | pseudovirus neutralisation IC50 [4]: 2 ng/mL | Authentic virus-IC50 [5]: 4 ng/mL | Authentic virus-IC50 [6]: 3 ng/mL | IC50, authentic virus neutralization [6]: 3 ng/mL | Authentic virus-IC50 [7]: 3 ng/mL | pseudovirus neutralisation IC50 [8]: 429 ng/mL | IC50, pseudovirus neutralization [9]: 2 ng/mL | pseudovirus neutralisation IC50 [10]: 2 ng/mL | Pseudovirus - IC50 [11]: 2 ng/mL | pseudovirus neutralisation IC50 [12]: 3 ng/mL | IC50, authentic virus neutralization [13]: 4 ng/mL | IC50, authentic virus neutralization [14]: 3 ng/mL | IC50, authentic virus neutralization [15]: 10 ng/mL | IC50, pseudovirus neutralization [15]: 3 ng/mL | Authentic virus-IC50 [16]: 6 ng/mL | Authentic virus-IC50 [17]: 5 ng/mL | IC50, authentic virus neutralization [17]: 5 ng/mL | IC50, pseudovirus neutralization [17]: 6 ng/mL | Pseudovirus - IC50 [17]: 6 ng/mL | IC50, authentic virus neutralization [18]: 6 ng/mL | Pseudovirus - IC50 [19]: 2 ng/mL | IC50, authentic virus neutralization [20]: 3 ng/mL | Pseudovirus - IC50 [21]: 3 ng/mL | pseudovirus neutralisation IC50 [22]: 6 ng/mL | Pseudovirus - IC50 [23]: 6 ng/mL | Authentic virus-IC50 [24]: 3 ng/mL | IC50, authentic virus neutralization [25]: 9 ng/mL | IC50, pseudovirus neutralization [25]: 2 ng/mL | pseudovirus neutralisation IC50 [26]: 6 ng/mL | IC50, pseudoviral neutralization [27]: 3 ng/mL | IC50, pseudoviral neutralization [28]: 429 ng/mL | IC50, pseudoviral neutralization [29]: > 10000 ng/mL | IC50, pseudoviral neutralization [30]: 3 ng/mL | IC50, pseudoviral neutralization [31]: 4 ng/mL | IC50, pseudoviral neutralization [32]: 74 ng/mL | IC50, pseudoviral neutralization [33]: 8 ng/mL | IC50, pseudoviral neutralization [34]: 6 ng/mL | pseudovirus neutralisation IC50 [35]: 3 ng/mL | pseudovirus neutralisation IC50 [36]: 3 ng/mL

Omi-18 (antibody)
pseudovirus neutralisation IC50 [1]: 5 ng/mL | IC50, pseudovirus neutralization [2]: 5 ng/mL | IC50, pseudovirus neutralization [3]: 6 ng/mL | pseudovirus neutralisation IC50 [4]: 2 ng/mL | Authentic virus-IC50 [5]: 6 ng/mL | Authentic virus-IC50 [6]: 25 ng/mL | IC50, authentic virus neutralization [6]: 25 ng/mL | Authentic virus-IC50 [7]: 38 ng/mL | pseudovirus neutralisation IC50 [8]: 5 ng/mL | IC50, pseudovirus neutralization [9]: 2 ng/mL | pseudovirus neutralisation IC50 [10]: 2 ng/mL | Pseudovirus - IC50 [11]: 2 ng/mL | pseudovirus neutralisation IC50 [12]: 35 ng/mL | IC50, authentic virus neutralization [13]: 6 ng/mL | IC50, authentic virus neutralization [14]: 38 ng/mL | IC50, authentic virus neutralization [15]: 7 ng/mL | IC50, pseudovirus neutralization [15]: 5 ng/mL | Authentic virus-IC50 [16]: 18 ng/mL | Authentic virus-IC50 [17]: 41 ng/mL | IC50, authentic virus neutralization [17]: 41 ng/mL | IC50, pseudovirus neutralization [17]: 8 ng/mL | Pseudovirus - IC50 [17]: 8 ng/mL | IC50, authentic virus neutralization [18]: 18 ng/mL | Pseudovirus - IC50 [19]: 2 ng/mL | IC50, authentic virus neutralization [20]: 16 ng/mL | Pseudovirus - IC50 [21]: 5 ng/mL | pseudovirus neutralisation IC50 [22]: 6 ng/mL | Pseudovirus - IC50 [23]: 6 ng/mL | Authentic virus-IC50 [24]: 16 ng/mL | IC50, authentic virus neutralization [25]: 6 ng/mL | IC50, pseudovirus neutralization [25]: 2 ng/mL | pseudovirus neutralisation IC50 [26]: 8 ng/mL | IC50, pseudoviral neutralization [27]: 5 ng/mL | IC50, pseudoviral neutralization [28]: 5 ng/mL | IC50, pseudoviral neutralization [29]: 4800 ng/mL | IC50, pseudoviral neutralization [30]: 35 ng/mL | IC50, pseudoviral neutralization [31]: 5 ng/mL | IC50, pseudoviral neutralization [32]: 6 ng/mL | IC50, pseudoviral neutralization [33]: 11 ng/mL | IC50, pseudoviral neutralization [34]: 8 ng/mL | pseudovirus neutralisation IC50 [35]: 5 ng/mL | pseudovirus neutralisation IC50 [36]: 35 ng/mL

Omi-29 (antibody)
pseudovirus neutralisation IC50 [1]: 56 ng/mL | IC50, pseudovirus neutralization [2]: 396 ng/mL | IC50, pseudovirus neutralization [3]: 64 ng/mL | pseudovirus neutralisation IC50 [4]: 16 ng/mL | Authentic virus-IC50 [5]: 36 ng/mL | Authentic virus-IC50 [6]: 29 ng/mL | IC50, authentic virus neutralization [6]: 29 ng/mL | Authentic virus-IC50 [7]: 66 ng/mL | pseudovirus neutralisation IC50 [8]: 396 ng/mL | IC50, pseudovirus neutralization [9]: 17 ng/mL | pseudovirus neutralisation IC50 [10]: 17 ng/mL | Pseudovirus - IC50 [11]: 16 ng/mL | pseudovirus neutralisation IC50 [12]: > 10000 ng/mL | IC50, authentic virus neutralization [13]: 36 ng/mL | IC50, authentic virus neutralization [14]: 66 ng/mL | IC50, authentic virus neutralization [15]: 192 ng/mL | IC50, pseudovirus neutralization [15]: 56 ng/mL | Authentic virus-IC50 [16]: 48 ng/mL | Authentic virus-IC50 [17]: 44 ng/mL | IC50, authentic virus neutralization [17]: 44 ng/mL | IC50, pseudovirus neutralization [17]: 14 ng/mL | Pseudovirus - IC50 [17]: 14 ng/mL | IC50, authentic virus neutralization [18]: 48 ng/mL | Pseudovirus - IC50 [19]: 17 ng/mL | IC50, authentic virus neutralization [20]: 40 ng/mL | Pseudovirus - IC50 [21]: 56 ng/mL | pseudovirus neutralisation IC50 [22]: 64 ng/mL | Pseudovirus - IC50 [23]: 64 ng/mL | Authentic virus-IC50 [24]: 40 ng/mL | IC50, authentic virus neutralization [25]: 52 ng/mL | IC50, pseudovirus neutralization [25]: 16 ng/mL | pseudovirus neutralisation IC50 [26]: 14 ng/mL | IC50, pseudoviral neutralization [27]: 56 ng/mL | IC50, pseudoviral neutralization [28]: 396 ng/mL | IC50, pseudoviral neutralization [29]: > 10000 ng/mL | IC50, pseudoviral neutralization [30]: > 10000 ng/mL | IC50, pseudoviral neutralization [31]: 25 ng/mL | IC50, pseudoviral neutralization [32]: 170 ng/mL | IC50, pseudoviral neutralization [33]: > 10000 ng/mL | IC50, pseudoviral neutralization [34]: 14 ng/mL | pseudovirus neutralisation IC50 [35]: 56 ng/mL | pseudovirus neutralisation IC50 [36]: > 10000 ng/mL
